{"source": "patent US20220001020A1", "target": "CD123 (human) (UniProt P26951)", "sequence (P26951 19-378)": "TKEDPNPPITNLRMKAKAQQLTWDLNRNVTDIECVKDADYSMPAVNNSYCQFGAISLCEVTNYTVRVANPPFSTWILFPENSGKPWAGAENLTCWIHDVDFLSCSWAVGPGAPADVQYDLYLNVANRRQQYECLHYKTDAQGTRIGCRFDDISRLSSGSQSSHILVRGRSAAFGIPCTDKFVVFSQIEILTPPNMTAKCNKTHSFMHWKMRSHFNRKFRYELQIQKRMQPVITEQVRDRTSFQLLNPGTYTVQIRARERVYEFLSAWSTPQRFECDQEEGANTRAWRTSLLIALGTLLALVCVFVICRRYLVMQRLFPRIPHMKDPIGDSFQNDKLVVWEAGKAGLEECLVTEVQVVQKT", "assay": "cell-based or functional assay"}
{"substance": "diphtheria toxin-human interleukin-3 conjugate (DT-IL3)", "values": [{"measurement": "IC50, cell viability assay", "value": 4.8, "unit": "nM"}]}
